Legend:
[1] = biological target: T1, full length TGF-beta 1 including the latency associated peptide (human, UniProt P01137 30-390); experiment: analytical gel filtration
T1 construct: also called latent TGF-beta 1; human Latency-associated Peptide and TGF-beta 1

mature human TGF-beta 1 [2] = biological target: T2, mature human TGF-beta 1 (human, UniProt P01137 279-390); experiment: cell-based or functional assay
mature human TGF-beta 2 [3] = biological target: T3, mature human TGF-beta 2 (human, UniProt P61812 303-414); experiment: cell-based or functional assay
T3 sequence: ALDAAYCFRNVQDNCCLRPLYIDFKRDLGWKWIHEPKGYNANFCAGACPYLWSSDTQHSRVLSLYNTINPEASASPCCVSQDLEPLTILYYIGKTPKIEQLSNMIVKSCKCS

mature human TGF-beta 3 [4] = biological target: T4, mature human TGF-beta 3 (human, UniProt P10600 301-412); experiment: cell-based or functional assay
T4 sequence: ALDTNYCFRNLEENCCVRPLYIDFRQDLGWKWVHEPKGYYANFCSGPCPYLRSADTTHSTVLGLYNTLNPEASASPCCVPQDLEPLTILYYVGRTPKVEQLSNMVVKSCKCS

[5] = biological target: TGF-beta produced and activated by BxPC3 cells; experiment: cell-based or functional assay
mature human TGF-beta 1 [6] = biological target: T2, mature human TGF-beta 1; experiment: SPR Biacore T200, human TGF-beta amine-coupled (~20 RU), E. coli derived Fab as analyte; heterogeneous fit, component 1 (KD1; believed occluded)
Procedure: (§1) Human TGF-β isoforms 1, 2, and 3 (Peprotech) were immobilised on CMS Series S chip via amine coupling chemistry on Flowcell 2, 3 and 4 (respectively) to a level of approximately 20 RU. HBS-EP buffer (10 mM HEPES pH 7.4, 0.15 M NaCl, 3 mM EDTA, 0.05% Surfactant P20, GE Healthcare) was used as the running buffer. […] The surface was regenerated by 2×10 μL injection of 10 mM HCl at a flowrate of 10 uL/min.
(§2) Background subtraction binding curves were analysed using the T200 evaluation software (version 1.0; GE Healthcare) following standard procedures. Kinetic parameters were determined using heterogeneous fitting algorithm with RI=0), as described in Example 3, and the values are provided in Table 4.

mature human TGF-beta 2 [7] = biological target: T3, mature human TGF-beta 2; experiment: as above
Procedure: as §1, §2

mature human TGF-beta 3 [8] = biological target: T4, mature human TGF-beta 3; experiment: as above
Procedure: as §1, §2

mature human TGF-beta 1 [9] = biological target: T2, mature human TGF-beta 1; experiment: SPR Biacore T200, human TGF-beta amine-coupled (~20 RU), E. coli derived Fab as analyte; heterogeneous fit, component 1 (ka1; believed occluded)
Procedure: as §1, §2

mature human TGF-beta 2 [10] = biological target: T3, mature human TGF-beta 2; experiment: as above
Procedure: as §1, §2

mature human TGF-beta 3 [11] = biological target: T4, mature human TGF-beta 3; experiment: as above
Procedure: as §1, §2

mature human TGF-beta 1 [12] = biological target: T2, mature human TGF-beta 1; experiment: SPR Biacore T200, human TGF-beta amine-coupled (~20 RU), E. coli derived Fab as analyte; heterogeneous fit, component 1 (kd1; believed occluded)
Procedure: as §1, §2

mature human TGF-beta 2 [13] = biological target: T3, mature human TGF-beta 2; experiment: as above
Procedure: as §1, §2

mature human TGF-beta 3 [14] = biological target: T4, mature human TGF-beta 3; experiment: as above
Procedure: as §1, §2

mature human TGF-beta 1 [15] = biological target: T2, mature human TGF-beta 1; experiment: SPR Biacore T200, human TGF-beta amine-coupled (~20 RU), E. coli derived Fab as analyte; heterogeneous fit, component 2 (KD2; believed unoccluded)
Procedure: as §1, §2

mature human TGF-beta 2 [16] = biological target: T3, mature human TGF-beta 2; experiment: as above
Procedure: as §1, §2

mature human TGF-beta 3 [17] = biological target: T4, mature human TGF-beta 3; experiment: as above
Procedure: as §1, §2

mature human TGF-beta 1 [18] = biological target: T2, mature human TGF-beta 1; experiment: SPR Biacore T200, human TGF-beta amine-coupled (~20 RU), E. coli derived Fab as analyte; heterogeneous fit, component 2 (ka2; believed unoccluded)
Procedure: as §1, §2

mature human TGF-beta 2 [19] = biological target: T3, mature human TGF-beta 2; experiment: as above
Procedure: as §1, §2

mature human TGF-beta 3 [20] = biological target: T4, mature human TGF-beta 3; experiment: as above
Procedure: as §1, §2

mature human TGF-beta 1 [21] = biological target: T2, mature human TGF-beta 1; experiment: SPR Biacore T200, human TGF-beta amine-coupled (~20 RU), E. coli derived Fab as analyte; heterogeneous fit, component 2 (kd2; believed unoccluded)
Procedure: as §1, §2

T2 sequence (P01137 279-390 limits assumed): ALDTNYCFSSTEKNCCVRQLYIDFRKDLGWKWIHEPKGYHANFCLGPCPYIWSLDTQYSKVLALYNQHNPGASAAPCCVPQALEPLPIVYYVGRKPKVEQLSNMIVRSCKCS
T1 sequence (P01137 30-390 limits assumed): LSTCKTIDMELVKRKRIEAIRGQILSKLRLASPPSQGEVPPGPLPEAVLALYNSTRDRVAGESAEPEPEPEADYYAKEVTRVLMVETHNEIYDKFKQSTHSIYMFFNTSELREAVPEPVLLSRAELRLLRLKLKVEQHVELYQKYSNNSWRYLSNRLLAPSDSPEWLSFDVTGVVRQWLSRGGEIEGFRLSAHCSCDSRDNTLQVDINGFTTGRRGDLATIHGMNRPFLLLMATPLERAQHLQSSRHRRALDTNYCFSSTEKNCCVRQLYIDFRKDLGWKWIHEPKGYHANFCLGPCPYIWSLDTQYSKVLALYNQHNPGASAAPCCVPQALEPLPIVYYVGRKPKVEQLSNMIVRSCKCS

B1: humanised antibody 4856 Fab graft gL3gH13 (Fab, V domains shown)
VH: EVQLVESGGGLVKPGGSLRLSCAASGFSLSSYDMSWVRQAPGKGLEWIGIIYGGSGSTWYASWAKGRFTISRDSAKNSVYLQMNSLRAEDTAVYYCARGRDAGAGGSRNGYSLWGQGTLVTVSS
VL: AYDMTQSPSTLSASVGDRVTITCQASESIYSGLAWYQQKPGKAPKLLIYAASDLASGVPSRFSGSGSGTEYTLTISSLQPDDFATYYCQQTWTDGGIDNPFGGGTKVEIKR
notes: Human gamma-1 CH1 (G1m17) and human C-kappa (K1m3); also called 4856gL3gH13
[1]
  binding result: no binding
Mature human TGF-beta 1 [2]
  Geometric mean IC50, HEK-Blue TGF-beta reporter gene assay: 0.074 nM
Mature human TGF-beta 2 [3]
  Geometric mean IC50, HEK-Blue TGF-beta reporter gene assay: 0.01 nM
Mature human TGF-beta 3 [4]
  Geometric mean IC50, HEK-Blue TGF-beta reporter gene assay: 0.475 nM
[5]
  Geometric mean IC50, BxPC3 and HEK-Blue TGF-beta reporter gene co-culture assay: 3.95 nM
Mature human TGF-beta 1 [6]
  Kd: 9.48 nM
Mature human TGF-beta 2 [7]
  Kd: 3.67 nM
Mature human TGF-beta 3 [8]
  Kd: 15.7 nM
Mature human TGF-beta 1 [9]
  kon: 74900 M⁻¹ s⁻¹
Mature human TGF-beta 2 [10]
  kon: 57700 M⁻¹ s⁻¹
Mature human TGF-beta 3 [11]
  kon: 93200 M⁻¹ s⁻¹
Mature human TGF-beta 1 [12]
  koff: 0.000709 s⁻¹
Mature human TGF-beta 2 [13]
  koff: 0.000211 s⁻¹
Mature human TGF-beta 3 [14]
  koff: 0.00146 s⁻¹
Mature human TGF-beta 1 [15]
  Kd: 0.0808 nM
Mature human TGF-beta 2 [16]
  Kd: 0.196 nM
Mature human TGF-beta 3 [17]
  Kd: 1.72 nM
Mature human TGF-beta 1 [18]
  kon: 704000 M⁻¹ s⁻¹
Mature human TGF-beta 2 [19]
  kon: 904000 M⁻¹ s⁻¹
Mature human TGF-beta 3 [20]
  kon: 2e+06 M⁻¹ s⁻¹
Mature human TGF-beta 1 [21]
  koff: 5.56e-05 s⁻¹

From patent US20200407436A1 (published 2020)
